Measured values as given in patent US7354588B1, “Functional derivatives of ICAM-1 with altered ability to bind LFA-1 or HRV” (Dana Farber Cancer Institute, priority 1987, dated 2008).
Positions count from the first letter of the chain named.

What was measured:
LFA-1 = target: T1, LFA-1 (Homo sapiens, UniProt P05107+P20701); experiment: Adherence of COS cells expressing ICAM-1 or ICAM-1 mutants to plastic-bound purified LFA-1; format: cell-based; details: COS cells expressing ICAM-1 mutant adhering to LFA-1 coated plastic; normalized for percent of cells expressing mutant and for wild type binding; mean
T1 construct: endogenous in cells

HRV14 = experiment: Binding of [^35S]-Met labeled HRV14 to COS cells expressing ICAM-1 mutants; format: cell-based, human rhinovirus 14; details: 35S met-labeled HRV14 binding to COS cells expressing ICAM-1 mutant; normalized for percent of cells expressing mutant and for wild type binding; mean
CL203 mAb = experiment: Indirect immunofluorescence flow cytofluorometry: mAb CL203 binding to COS cells expressing ICAM-1 mutants (SLFI, % WT); format: cell-based; details: SLFI of CL203 for mutant normalized to wild type CL203 SLFI; level of expression
How it was run: (§1)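 Transfected COS cells expressing ICAM-1 point mutants were stained by indirect immunofluorescence and analysed by flow cytometry. Specific linear fluorescence intensity of CL203 is expressed relative to wild-type CL203; RR1/1, R6.5 and LB-2 SLFI are expressed relative to CL203 SLFI of the same mutant.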

RR1/1 mAb = experiment: Indirect immunofluorescence flow cytofluorometry: mAb RR1/1 binding to COS cells expressing ICAM-1 mutants (SLFI, % CL203); format: cell-based; details: SLFI normalized to CL203 SLFI of the mutant
How it was run: as §1

R6.5 mAb = experiment: Indirect immunofluorescence flow cytofluorometry: mAb R6.5 binding to COS cells expressing ICAM-1 mutants (SLFI, % CL203); format: cell-based; details: SLFI normalized to CL203 SLFI of the mutant
How it was run: as §1

LB-2 mAb = experiment: Indirect immunofluorescence flow cytofluorometry: mAb LB-2 binding to COS cells expressing ICAM-1 mutants (SLFI, % CL203); format: cell-based; details: SLFI normalized to CL203 SLFI of the mutant
How it was run: as §1

[1] = system: ICAM-1 expression on human umbilical vein endothelial cells (HUVEC); experiment: Radioimmune assay of ICAM-1 expression with ^125I RR1/1, HUVEC; format: cell-based; details: 16 hr
Procedure: In order to measure ICAM-1 expression, a radioimmune assay was developed. In this assay, purified RR1/1 was iodinated using iodogen to a specific activity of 10 μCi/μg. Endothelial cells were grown in 96 well plates and treated as described for each experiment. The plates were cooled at 4° C. by placing in a cold room for 0.5-1 hr, not immediately on ice. The monolayers were washed 3× with cold complete media and then incubated 30 m at 4° C. with ^125I RR1/1. The monolayers were then washed 3× with complete media. The bound 125, was released using 0.1 N NaOH and counted. The specific activity of the ^125I RR1/1 was adjusted using unlabeled RR1/1 to obtain a linear signal over the range of antigen densities encountered in this study. Non-specific binding was determined in the presence of a thousand fold excess of unlabeled RR1/1 and was subtracted from total binding to yield the specific binding.
Upregulation of ICAM-1 expression on HVEC and HSVEC-HUVEC or HSVEC were seeded into 96 well plates at 1:3 from a confluent monolayer and allowed to grow to confluence. Cells were then treated with the indicated materials or media for 16 hr and the RIA done as in methods. All points were done in quadruplicate.

T1 sequence (P20701 26-1170): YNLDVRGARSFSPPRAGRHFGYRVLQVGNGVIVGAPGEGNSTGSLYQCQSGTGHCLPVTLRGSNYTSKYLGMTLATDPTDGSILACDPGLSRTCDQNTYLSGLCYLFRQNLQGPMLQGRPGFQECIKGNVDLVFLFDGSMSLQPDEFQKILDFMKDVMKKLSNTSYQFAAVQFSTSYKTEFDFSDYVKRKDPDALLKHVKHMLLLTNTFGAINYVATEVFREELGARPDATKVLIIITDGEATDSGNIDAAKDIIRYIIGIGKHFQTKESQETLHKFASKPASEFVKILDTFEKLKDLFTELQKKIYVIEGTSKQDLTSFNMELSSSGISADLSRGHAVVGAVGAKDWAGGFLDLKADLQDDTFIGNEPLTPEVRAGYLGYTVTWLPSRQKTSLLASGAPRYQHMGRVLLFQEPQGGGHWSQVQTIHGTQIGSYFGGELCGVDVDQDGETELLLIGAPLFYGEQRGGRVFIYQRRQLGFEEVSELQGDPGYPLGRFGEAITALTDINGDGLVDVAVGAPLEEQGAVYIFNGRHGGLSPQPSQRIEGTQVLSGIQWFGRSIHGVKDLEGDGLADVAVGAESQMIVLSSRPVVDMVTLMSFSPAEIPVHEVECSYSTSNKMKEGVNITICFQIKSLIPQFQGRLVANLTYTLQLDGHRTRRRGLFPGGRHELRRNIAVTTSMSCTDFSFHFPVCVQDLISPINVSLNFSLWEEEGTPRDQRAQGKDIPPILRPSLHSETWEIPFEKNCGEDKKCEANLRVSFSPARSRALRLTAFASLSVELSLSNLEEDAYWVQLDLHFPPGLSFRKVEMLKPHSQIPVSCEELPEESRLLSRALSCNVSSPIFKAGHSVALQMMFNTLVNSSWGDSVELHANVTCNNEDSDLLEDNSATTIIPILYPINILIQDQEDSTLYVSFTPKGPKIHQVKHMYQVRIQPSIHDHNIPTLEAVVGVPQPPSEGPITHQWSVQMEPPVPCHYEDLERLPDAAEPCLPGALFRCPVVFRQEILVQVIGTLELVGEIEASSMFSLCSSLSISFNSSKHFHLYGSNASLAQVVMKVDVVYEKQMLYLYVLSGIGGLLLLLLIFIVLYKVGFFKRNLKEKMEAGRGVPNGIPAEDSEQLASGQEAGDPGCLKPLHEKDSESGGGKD
T1 sequence (P05107 23-769): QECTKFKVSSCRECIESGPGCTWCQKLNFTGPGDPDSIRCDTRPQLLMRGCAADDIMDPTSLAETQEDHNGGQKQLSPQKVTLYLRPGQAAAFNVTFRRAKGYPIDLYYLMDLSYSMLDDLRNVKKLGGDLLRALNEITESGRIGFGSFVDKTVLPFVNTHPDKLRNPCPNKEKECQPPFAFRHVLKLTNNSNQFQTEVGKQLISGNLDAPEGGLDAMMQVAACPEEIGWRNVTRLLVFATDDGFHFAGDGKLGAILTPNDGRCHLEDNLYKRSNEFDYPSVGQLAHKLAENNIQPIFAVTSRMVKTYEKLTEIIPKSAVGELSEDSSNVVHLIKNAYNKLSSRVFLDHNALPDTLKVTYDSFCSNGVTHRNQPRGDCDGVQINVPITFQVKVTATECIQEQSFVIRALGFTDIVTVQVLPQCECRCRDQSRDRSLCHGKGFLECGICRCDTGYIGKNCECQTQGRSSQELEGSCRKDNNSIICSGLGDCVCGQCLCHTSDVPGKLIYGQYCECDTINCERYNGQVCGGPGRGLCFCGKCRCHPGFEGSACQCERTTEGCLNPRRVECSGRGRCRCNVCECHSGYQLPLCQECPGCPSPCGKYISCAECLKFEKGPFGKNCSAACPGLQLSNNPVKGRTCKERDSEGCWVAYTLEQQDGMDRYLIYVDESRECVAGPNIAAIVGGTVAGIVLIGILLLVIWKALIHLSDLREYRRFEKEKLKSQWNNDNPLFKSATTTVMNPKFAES

B1: D203TQ/TAD (protein, UniProt P05362 28-532, looked up, variant D203T T204A Q205D)
Intercellular adhesion …: QTSVSPSKVILPRGGSVLVTCSTSCDQPKLLGIETPLPKKELLLPGNNRKVYELSNVQEDSQPMCYSNCPDGQSTAKTFLTVYWTPERVELAPLPSWQPVGKNLTLRCQVEGGAPRANLTVVLLRGEKELKREPAVGEPAEVTTTVLVRRDHHGANFSCRTELDLRPQGLELFENTSAPYQLQTFVLPATPPQLVSPRVLEVTADGTVVCSLDGLFPVSEAQVHLALGDQRLNPTVTYGNDSFSAKASVSVTAEDEGTQRLTCAVILGNQSQETLQTVTIYSFPAPNVILTKPEVSEGTEVTVKCEAHPRAKVTLNGVPAQPLGPRAQLLLKATPEDNGRSFSCSATLEVAGQLIHKNQTRELRVLYGPRLDERDCPGNWTWPENSQQTPMCQAWGNPLPELKCLKDGTFPLPIGESVTVTRDLEGTYLCRARSTQGEVTRKVTVNVLSPRYEIVIITVVAAAVIMGTAGLSTYLYNRQRKIKKYRLQQAQKGTPMKPNTQATPP
LFA-1
  LFA-1 Binding %: 91%
HRV14
  HRV Binding %: 111%
CL203 mAb
  Cl203 % WT (SLFI): 125 % WT
RR1/1 mAb
  SLFI (% CL203) RR/1: 178 % CL203
R6.5 mAb
  SLFI (% CL203) R6.5: 116 % CL203
LB-2 mAb
  SLFI (% CL203) LB-2: 86 % CL203

B2: E254DE/KEK (protein, UniProt P05362 28-532, looked up, variant E254K D255E E256K)
Intercellular adhesion …: B1 Intercellular adhesion … with T203D, A204T, D205Q, E254K, D255E, E256K
LFA-1
  LFA-1 Binding %: 122%
HRV14
  HRV Binding %: 99%
CL203 mAb
  Cl203 % WT (SLFI): 180 % WT
RR1/1 mAb
  SLFI (% CL203) RR/1: 178 % CL203
R6.5 mAb
  SLFI (% CL203) R6.5: 129 % CL203
LB-2 mAb
  SLFI (% CL203) LB-2: 81 % CL203

B3: N175TSA/QTLG (protein, UniProt P05362 28-532, looked up, variant N175Q S177L A178G)
Intercellular adhesion …: B1 Intercellular adhesion … with N175Q, S177L, A178G, T203D, A204T, D205Q
LFA-1
  LFA-1 Binding %: 26%
HRV14
  HRV Binding %: 40%
CL203 mAb
  Cl203 % WT (SLFI): 75 % WT
RR1/1 mAb
  SLFI (% CL203) RR/1: 19 % CL203
R6.5 mAb
  SLFI (% CL203) R6.5: 50 % CL203
LB-2 mAb
  SLFI (% CL203) LB-2: 44 % CL203

B4: D229QR/HLE (protein, UniProt P05362 28-532, looked up, variant D229H Q230L R231E)
Intercellular adhesion …: B1 Intercellular adhesion … with T203D, A204T, D205Q, D229H, Q230L, R231E
LFA-1
  LFA-1 Binding %: 90%
HRV14
  HRV Binding %: 106%
CL203 mAb
  Cl203 % WT (SLFI): 210 % WT
RR1/1 mAb
  SLFI (% CL203) RR/1: 94 % CL203
R6.5 mAb
  SLFI (% CL203) R6.5: 92 % CL203
LB-2 mAb
  SLFI (% CL203) LB-2: 100 % CL203

B5: N240DS/KNA (protein, UniProt P05362 28-532, looked up, variant N240K D241N S242A)
Intercellular adhesion …: B1 Intercellular adhesion … with T203D, A204T, D205Q, N240K, D241N, S242A
LFA-1
  LFA-1 Binding %: 147%
HRV14
  HRV Binding %: 82%
CL203 mAb
  Cl203 % WT (SLFI): 142 % WT
RR1/1 mAb
  SLFI (% CL203) RR/1: 113 % CL203
R6.5 mAb
  SLFI (% CL203) R6.5: 125 % CL203
LB-2 mAb
  SLFI (% CL203) LB-2: 132 % CL203

B6: rIL-1 alpha: recombinant IL-1 alpha (protein, UniProt P01583 113-271, looked up)
Interleukin-1 alpha: SAPFSFLSNVKYNFMRIIKYEFILNDALNQSIIRANDQYLTAAALHNLDEAVKFDMGAYKSSKDDAKITVILRISKTQLYVTAQDEDQPVLLKEMPEIPKTITGSETNLLFFWETHGTKNYFTSVAHPNLFIATKQDYWVCLAGGPPSITDFQILENQA
[1]; rIL-1 beta 100 ng/ml, rIL-1 alpha 50 ng/ml, rTNF alpha 50 ng/ml, LPS 10 μg/ml, rIFN gamma 10 ng/ml, polymyxin B 10 μg/ml, control 603 ± 11
  ^125I Specifically bound (CPM), HUVEC: 9910 ± 538 CPM
[1]; same concentrations as CPM
  fold of control ICAM-1 expression, HUVEC: 16x
